Source: PMC12416549 (2024)

Target: T1, TNFR1 (Homo sapiens, UniProt P19438)
T1 chain: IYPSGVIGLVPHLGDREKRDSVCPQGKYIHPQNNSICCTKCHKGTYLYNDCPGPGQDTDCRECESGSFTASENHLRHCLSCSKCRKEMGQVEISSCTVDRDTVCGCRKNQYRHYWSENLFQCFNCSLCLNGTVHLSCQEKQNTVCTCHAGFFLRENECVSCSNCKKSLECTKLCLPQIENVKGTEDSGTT
Test: yeast display SC50

| Binder | apparent Kd (screen) |
| --- | --- |
| I21Y (designed binder) SMEEEVEKAAKEYEKKKKEAYEKHLEKLKAKDKEAAERFLKELEEAAKEYAKDEAKTMSEEEAKRRAKKYKEKVLLSELSEEEQKEIKEAEEKLVRTILKYVEEAAK | 0.446 nM |
| K41W (designed binder) SMEEEVEKAAKEYEKKKKEAIEKHLEKLKAKDKEAAERFLWELEEAAKEYAKDEAKTMSEEEAKRRAKKYKEKVLLSELSEEEQKEIKEAEEKLVRTILKYVEEAAK | 0.446 nM |
| E49R (designed binder) SMEEEVEKAAKEYEKKKKEAIEKHLEKLKAKDKEAAERFLKELEEAAKRYAKDEAKTMSEEEAKRRAKKYKEKVLLSELSEEEQKEIKEAEEKLVRTILKYVEEAAK | 0.956 nM |
| K17M (designed binder) SMEEEVEKAAKEYEKKMKEAIEKHLEKLKAKDKEAAERFLKELEEAAKEYAKDEAKTMSEEEAKRRAKKYKEKVLLSELSEEEQKEIKEAEEKLVRTILKYVEEAAK | 0.79 nM |
| E19K (designed binder) SMEEEVEKAAKEYEKKKKKAIEKHLEKLKAKDKEAAERFLKELEEAAKEYAKDEAKTMSEEEAKRRAKKYKEKVLLSELSEEEQKEIKEAEEKLVRTILKYVEEAAK | 0.49 nM |
| E54K (designed binder) SMEEEVEKAAKEYEKKKKEAIEKHLEKLKAKDKEAAERFLKELEEAAKEYAKDKAKTMSEEEAKRRAKKYKEKVLLSELSEEEQKEIKEAEEKLVRTILKYVEEAAK | 8.56 nM |
| K73I (designed binder) SMEEEVEKAAKEYEKKKKEAIEKHLEKLKAKDKEAAERFLKELEEAAKEYAKDEAKTMSEEEAKRRAKKYKEIVLLSELSEEEQKEIKEAEEKLVRTILKYVEEAAK | 2.73 nM |
| K69G (designed binder) SMEEEVEKAAKEYEKKKKEAIEKHLEKLKAKDKEAAERFLKELEEAAKEYAKDEAKTMSEEEAKRRAKGYKEKVLLSELSEEEQKEIKEAEEKLVRTILKYVEEAAK | 2.25 nM |
| K52M (designed binder) SMEEEVEKAAKEYEKKKKEAIEKHLEKLKAKDKEAAERFLKELEEAAKEYAMDEAKTMSEEEAKRRAKKYKEKVLLSELSEEEQKEIKEAEEKLVRTILKYVEEAAK | 0.446 nM |
| F39V (designed binder) SMEEEVEKAAKEYEKKKKEAIEKHLEKLKAKDKEAAERVLKELEEAAKEYAKDEAKTMSEEEAKRRAKKYKEKVLLSELSEEEQKEIKEAEEKLVRTILKYVEEAAK | 4.39 nM |
| E26N (designed binder) SMEEEVEKAAKEYEKKKKEAIEKHLNKLKAKDKEAAERFLKELEEAAKEYAKDEAKTMSEEEAKRRAKKYKEKVLLSELSEEEQKEIKEAEEKLVRTILKYVEEAAK | 0.593 nM |
| E4N (designed binder) SMENEVEKAAKEYEKKKKEAIEKHLEKLKAKDKEAAERFLKELEEAAKEYAKDEAKTMSEEEAKRRAKKYKEKVLLSELSEEEQKEIKEAEEKLVRTILKYVEEAAK | 0.539 nM |
| E104G (designed binder) SMEEEVEKAAKEYEKKKKEAIEKHLEKLKAKDKEAAERFLKELEEAAKEYAKDEAKTMSEEEAKRRAKKYKEKVLLSELSEEEQKEIKEAEEKLVRTILKYVEGAAK | 0.446 nM |
| I98P (designed binder) SMEEEVEKAAKEYEKKKKEAIEKHLEKLKAKDKEAAERFLKELEEAAKEYAKDEAKTMSEEEAKRRAKKYKEKVLLSELSEEEQKEIKEAEEKLVRTPLKYVEEAAK | 1.86 nM |
| E78N (designed binder) SMEEEVEKAAKEYEKKKKEAIEKHLEKLKAKDKEAAERFLKELEEAAKEYAKDEAKTMSEEEAKRRAKKYKEKVLLSNLSEEEQKEIKEAEEKLVRTILKYVEEAAK | 2.73 nM |
| V74R (designed binder) SMEEEVEKAAKEYEKKKKEAIEKHLEKLKAKDKEAAERFLKELEEAAKEYAKDEAKTMSEEEAKRRAKKYKEKRLLSELSEEEQKEIKEAEEKLVRTILKYVEEAAK | 5.31 nM |
| K107D (designed binder) SMEEEVEKAAKEYEKKKKEAIEKHLEKLKAKDKEAAERFLKELEEAAKEYAKDEAKTMSEEEAKRRAKKYKEKVLLSELSEEEQKEIKEAEEKLVRTILKYVEEAAD | 0.0498 nM |

| Binder | apparent Kd (screen) |
| --- | --- |
| E19N (designed binder) SMEEEVEKAAKEYEKKKKNAIEKHLEKLKAKDKEAAERFLKELEEAAKEYAKDEAKTMSEEEAKRRAKKYKEKVLLSELSEEEQKEIKEAEEKLVRTILKYVEEAAK | 0.446 nM |
| E4G (designed binder) SMEGEVEKAAKEYEKKKKEAIEKHLEKLKAKDKEAAERFLKELEEAAKEYAKDEAKTMSEEEAKRRAKKYKEKVLLSELSEEEQKEIKEAEEKLVRTILKYVEEAAK | 0.718 nM |
| A106D (designed binder) SMEEEVEKAAKEYEKKKKEAIEKHLEKLKAKDKEAAERFLKELEEAAKEYAKDEAKTMSEEEAKRRAKKYKEKVLLSELSEEEQKEIKEAEEKLVRTILKYVEEADK | 0.79 nM |
| A55F (designed binder) SMEEEVEKAAKEYEKKKKEAIEKHLEKLKAKDKEAAERFLKELEEAAKEYAKDEFKTMSEEEAKRRAKKYKEKVLLSELSEEEQKEIKEAEEKLVRTILKYVEEAAK | 11.4 nM |
| Y13M (designed binder) SMEEEVEKAAKEMEKKKKEAIEKHLEKLKAKDKEAAERFLKELEEAAKEYAKDEAKTMSEEEAKRRAKKYKEKVLLSELSEEEQKEIKEAEEKLVRTILKYVEEAAK | 0.593 nM |
| K68N (designed binder) SMEEEVEKAAKEYEKKKKEAIEKHLEKLKAKDKEAAERFLKELEEAAKEYAKDEAKTMSEEEAKRRANKYKEKVLLSELSEEEQKEIKEAEEKLVRTILKYVEEAAK | 0.653 nM |
| A106Y (designed binder) SMEEEVEKAAKEYEKKKKEAIEKHLEKLKAKDKEAAERFLKELEEAAKEYAKDEAKTMSEEEAKRRAKKYKEKVLLSELSEEEQKEIKEAEEKLVRTILKYVEEAYK | 2.73 nM |
| K56T (designed binder) SMEEEVEKAAKEYEKKKKEAIEKHLEKLKAKDKEAAERFLKELEEAAKEYAKDEATTMSEEEAKRRAKKYKEKVLLSELSEEEQKEIKEAEEKLVRTILKYVEEAAK | 3 nM |
| E19P (designed binder) SMEEEVEKAAKEYEKKKKPAIEKHLEKLKAKDKEAAERFLKELEEAAKEYAKDEAKTMSEEEAKRRAKKYKEKVLLSELSEEEQKEIKEAEEKLVRTILKYVEEAAK | 22.2 nM |
| E34W (designed binder) SMEEEVEKAAKEYEKKKKEAIEKHLEKLKAKDKWAAERFLKELEEAAKEYAKDEAKTMSEEEAKRRAKKYKEKVLLSELSEEEQKEIKEAEEKLVRTILKYVEEAAK | 0.446 nM |
| K29E (designed binder) SMEEEVEKAAKEYEKKKKEAIEKHLEKLEAKDKEAAERFLKELEEAAKEYAKDEAKTMSEEEAKRRAKKYKEKVLLSELSEEEQKEIKEAEEKLVRTILKYVEEAAK | 0.869 nM |
| A105V (designed binder) SMEEEVEKAAKEYEKKKKEAIEKHLEKLKAKDKEAAERFLKELEEAAKEYAKDEAKTMSEEEAKRRAKKYKEKVLLSELSEEEQKEIKEAEEKLVRTILKYVEEVAK | 1.16 nM |
| L79G (designed binder) SMEEEVEKAAKEYEKKKKEAIEKHLEKLKAKDKEAAERFLKELEEAAKEYAKDEAKTMSEEEAKRRAKKYKEKVLLSEGSEEEQKEIKEAEEKLVRTILKYVEEAAK | 2.48 nM |
| T57R (designed binder) SMEEEVEKAAKEYEKKKKEAIEKHLEKLKAKDKEAAERFLKELEEAAKEYAKDEAKRMSEEEAKRRAKKYKEKVLLSELSEEEQKEIKEAEEKLVRTILKYVEEAAK | 0.49 nM |
| K68L (designed binder) SMEEEVEKAAKEYEKKKKEAIEKHLEKLKAKDKEAAERFLKELEEAAKEYAKDEAKTMSEEEAKRRALKYKEKVLLSELSEEEQKEIKEAEEKLVRTILKYVEEAAK | 2.73 nM |
| A30D (designed binder) SMEEEVEKAAKEYEKKKKEAIEKHLEKLKDKDKEAAERFLKELEEAAKEYAKDEAKTMSEEEAKRRAKKYKEKVLLSELSEEEQKEIKEAEEKLVRTILKYVEEAAK | 1.4 nM |
